The conditions of the data set: Escherichia coli (strain K12); pH 5.5; 25 °C; GdnHCl; Fluorescence; Sodium acetate 20 mM; NaCl 0.1 M; reversible: yes; whole UniProt chain shown.

B1: Ribonuclease HI wild type, P0A7Y4 (protein)
chain: MLKQVEIFTDGSCLGNPGPGGYGAILRYRGREKTFSAGYTRTTNNRMELMAAIVALEALKEHCEVILSTDSQYVRQGITQWIHNWKKRGWKTADKKPVKNVDLWQRLDAALGQHQIKWEWVKGHAGHPENERCDELARAAAMNPTLEDTGYQVEV
For B1, the denaturant m value was found to be 5.17 kcal/mol/M, the “denaturant midpoint (higher = more stable)” value was found to be 1.79 M and the unfolding free energy came out at 38.7 kJ/mol.

Values taken from FireProtDB (doi:10.1111/j.1432-1033.1991.tb16033.x).
